± gives the standard deviation of the averaged measurements.
B1: library; a variant is named by its letters at N, in order (parent)
chain: GCUGUCACCGAGAAACUGUGAAGUAUAUCUUAAACCUGGGCACUUAAAAGAUAUAUGGAGUUAGUAGUGCAACCUGCUCGGUCUGAUGAGUCCNNNNNNGGACGAAACAGC

Columns and labels:
cyclic di-GMP [1] = variants of: B1; assay: FACS-Seq fitted mean relative fluorescence mCherry/BFP without ligand (log10 relative fluorescence); HEK293T; ligand: cyclic di-GMP (c-di-GMP-II aptamer); higher = higher reporter protein expression; details: ligand present: no
Method in brief: (§1)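 Fluorescence figures are normalized fitted normal means of sequenced bin counts. Enriched, lentivirally transduced HEK293T libraries with a ribozyme-switch mCherry reporter and EF1α-BFP were held 48 h with or without ligand, then sorted into 6 mCherry/BFP bins. PCR-amplified, barcoded genomic DNA from each bin was sequenced on MiSeq. Means of log10(mCherry/BFP) were scaled to five spiked-in control ribozymes.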

cyclic di-GMP [2] = variants of: B1; assay: normalized RNA/DNA level without ligand (relative to sTRSVctl = 100) (log10 (% of sTRSVctl)); HEK293T; ligand: cyclic di-GMP (c-di-GMP-II aptamer); higher = less ribozyme self-cleavage, higher mRNA level; details: reporter: mCherry (pCS4076), ligand present: no
Method in brief: (§2)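 Only sequences with at least 100 DNA reads were analyzed, from HEK293T cells transfected with 4 µg per 6-well well of ribozyme switch library plasmids 72 h before RNA extraction with EDTA. Any ligand was added 1 h before transfection. RNA level was defined as RNA over DNA reads, normalized to a spiked-in non-cleaving sequence or to the top sequences, then scaled and log-transformed. The top set was 25 sequences, and the scaling was ×100 followed by log10.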

cyclic di-GMP [3] = variants of: B1; assay: FACS-Seq fitted mean relative fluorescence mCherry/BFP with ligand (log10 relative fluorescence); HEK293T; ligand: cyclic di-GMP (c-di-GMP-II aptamer); ligand concentration (+) FACS-Seq: 1 mM; higher = higher reporter protein expression; details: ligand present: yes
Method in brief: as §1

cyclic di-GMP [4] = variants of: B1; assay: normalized RNA/DNA level with ligand (relative to sTRSVctl = 100) (log10 (% of sTRSVctl)); HEK293T; ligand: cyclic di-GMP (c-di-GMP-II aptamer); ligand concentration (+) RNA-Seq: 1 mM; higher = less ribozyme self-cleavage, higher mRNA level; details: reporter: mCherry (pCS4076), ligand present: yes
Method in brief: as §2

Variant	FACS-Seq fitted mean (log10) (cyclic di-GMP [1])	normalized RNA/DNA level without ligand (log10) (cyclic di-GMP [2])	FACS-Seq fitted mean (log10) (cyclic di-GMP [3])	normalized RNA/DNA level with ligand (log10) (cyclic di-GMP [4])
GACACU	-0.276 ± 0.038	1.705 ± 0.016	-0.141 ± 0.073	1.83 ± 0.12
AUGGAU	-0.631 ± 0.017	1.51 ± 0.057	-0.404 ± 0.012	1.67 ± 0.12
CCUCCU	-0.211 ± 0.0029	1.678 ± 0.011	0.278 ± 0.026	1.77 ± 0.098
GUUACU	-0.232 ± 0.064	1.75 ± 0.027	0.0991 ± 0.015	1.82 ± 0.13
UAAAGA	-0.0343 ± 0.1	1.6 ± 0.047	0.167 ± 0.024	1.73 ± 0.12
UUUAAU	0.192 ± 0.051	1.698 ± 0.015	0.405 ± 0.0074	1.84 ± 0.08
AGCGUC	-0.71 ± 0.022	1.78 ± 0.028	-0.542 ± 0.044	1.9 ± 0.15
AGCGUG	-0.586 ± 0.017	1.6 ± 0.017	-0.279 ± 0.04	1.78 ± 0.14
UCGGCA	-0.241 ± 0.26	1.65 ± 0.02	-0.0817 ± 0.0018	1.81 ± 0.12
CUUGAC	-0.287 ± 0.2	1.69 ± 0.024	0.101 ± 0.066	1.83 ± 0.085
UCCAGA	-0.246 ± 0.071	1.631 ± 0.014	0.0947 ± 0.062	1.82 ± 0.081
AAAACG	-0.442 ± 0.098	1.5 ± 0.072	-0.105 ± 0.12	1.71 ± 0.079
AAAGAC	-0.0292 ± 0.22	1.56 ± 0.036	0.33 ± 0.099	1.75 ± 0.09
AACAAU	-0.133 ± 0.038	1.594 ± 0.0028	0.103 ± 0.014	1.71 ± 0.13
AACAAG	-0.43 ± 0.028	1.523 ± 0.0073	-0.281 ± 0.037	1.73 ± 0.088
ACAAUA	-0.5113 ± 0.0047	1.33 ± 0.094	-0.23 ± 0.047	1.55 ± 0.14
ACAAUU	-0.5008 ± 0.0033	1.32 ± 0.093	-0.2 ± 0.0047	1.52 ± 0.089
AGCUCG	-0.0835 ± 0.12	1.74 ± 0.095	0.217 ± 0.076	1.88 ± 0.039
GCCAAU	-0.423 ± 0.1	1.57 ± 0.021	-0.105 ± 0.08	1.75 ± 0.11
GAUACA	-0.276 ± 0.023	1.65 ± 0.032	-0.124 ± 0.088	1.8 ± 0.11
ACCUAU	-0.223 ± 0.079	1.59 ± 0.055	-0.113 ± 0.043	1.79 ± 0.11
CGUAAU	-0.374 ± 0.0044	1.36 ± 0.17	-0.0343 ± 0.11	1.53 ± 0.093
GCAAAC	-0.826 ± 0.056	1.39 ± 0.064	-0.0625 ± 0.35	1.57 ± 0.085
UUAUAU	-0.127 ± 0.066	1.68 ± 0.0031	0.0702 ± 0.1	1.8 ± 0.081

Variant	FACS-Seq fitted mean (log10) (cyclic di-GMP [1])	normalized RNA/DNA level without ligand (log10) (cyclic di-GMP [2])	FACS-Seq fitted mean (log10) (cyclic di-GMP [3])	normalized RNA/DNA level with ligand (log10) (cyclic di-GMP [4])
UGGUGA	-0.506 ± 0.1	1.57 ± 0.12	-0.257 ± 0.04	1.75 ± 0.1
AGAAAC	0.0659 ± 0.072	1.617 ± 0.0019	0.343 ± 0.052	1.8 ± 0.12
AGAAAA	-0.765 ± 0.013	1.42 ± 0.084	-0.587 ± 0.043	1.61 ± 0.089
UUAAAU	-0.418 ± 0.091	1.711 ± 0.0058	-0.275 ± 0.024	1.86 ± 0.11
AGCUGC	-0.105 ± 0.077	1.74 ± 0.044	0.255 ± 0.092	1.87 ± 0.14
CGAUAA	-0.6883 ± 0.0045	1.22 ± 0.1	-0.358 ± 0.058	1.41 ± 0.033
GUAUUG	-0.534 ± 0.043	1.53 ± 0.044	-0.274 ± 0.037	1.71 ± 0.078
GUUUUG	0.124 ± 0.17	1.61 ± 0.095	0.384 ± 0.05	1.8 ± 0.083
CCGGGG	-0.589 ± 0.03	1.43 ± 0.022	-0.295 ± 0.011	1.62 ± 0.11
GCAGUA	-0.229 ± 0.042	1.59 ± 0.035	0.0693 ± 0.0072	1.7 ± 0.12
CCAAUA	-0.5437 ± 0.0029	1.36 ± 0.12	-0.271 ± 0.066	1.59 ± 0.11
AGCCUA	-0.0368 ± 0.15	1.62 ± 0.011	0.288 ± 0.026	1.8 ± 0.15
AAAAUC	0.0212 ± 0.1	1.62 ± 0.028	0.2003 ± 0.0016	1.76 ± 0.06
ACGUGG	-0.532 ± 0.088	1.56 ± 0.11	-0.352 ± 0.032	1.74 ± 0.058
GCACAC	-0.421 ± 0.06	1.55 ± 0.034	0.00625 ± 0.1	1.69 ± 0.13
UAAGUU	0.0182 ± 0.011	1.577 ± 0.0025	0.229 ± 0.08	1.77 ± 0.094
ACGAUU	-0.694 ± 0.056	1.2 ± 0.13	-0.341 ± 0.036	1.41 ± 0.19
ACAAGC	-0.263 ± 0.13	1.44 ± 0.045	-0.052 ± 0.14	1.7 ± 0.12
UACGCU	-0.169 ± 0.063	1.71 ± 0.032	0.108 ± 0.051	1.86 ± 0.098
ACAUAG	-0.486 ± 0.035	1.41 ± 0.11	-0.109 ± 0.082	1.66 ± 0.05
CUAUCC	-0.679 ± 0.11	1.77 ± 0.028	-0.371 ± 0.13	1.88 ± 0.13
AAUGAU	-0.104 ± 0.17	1.581 ± 0.0096	0.206 ± 0.048	1.76 ± 0.034
AACGGA	-0.525 ± 0.046	1.32 ± 0.14	-0.253 ± 0.067	1.53 ± 0.13
ACCCUC	-0.504 ± 0.046	1.784 ± 0.015	-0.217 ± 0.028	1.91 ± 0.057

Variant	FACS-Seq fitted mean (log10) (cyclic di-GMP [1])	normalized RNA/DNA level without ligand (log10) (cyclic di-GMP [2])	FACS-Seq fitted mean (log10) (cyclic di-GMP [3])	normalized RNA/DNA level with ligand (log10) (cyclic di-GMP [4])
CCAUUG	-0.474 ± 0.062	1.28 ± 0.11	-0.134 ± 0.034	1.55 ± 0.093
CCGAAA	-0.628 ± 0.032	1.31 ± 0.12	-0.282 ± 0.0032	1.53 ± 0.1
CGCUAC	-0.231 ± 0.14	1.65 ± 0.021	0.045 ± 0.046	1.81 ± 0.11
UAUGAC	-0.234 ± 0.026	1.71 ± 0.057	0.133 ± 0.1	1.87 ± 0.1
CGCUGU	0.3 ± 0.092	1.776 ± 0.0024	0.433 ± 0.014	1.9 ± 0.13
GUUAAU	-0.336 ± 0.014	1.62 ± 0.041	-0.0912 ± 0.025	1.77 ± 0.067
GCUUAA	-0.0927 ± 0.12	1.56 ± 0.088	0.338 ± 0.039	1.7 ± 0.072
UCUUAG	0.0393 ± 0.27	1.66 ± 0.05	0.27 ± 0.049	1.8 ± 0.086
GAACGA	-0.276 ± 0.045	1.46 ± 0.1	-0.0281 ± 0.066	1.64 ± 0.072
GUAGAG	0.0274 ± 0.11	1.47 ± 0.073	0.252 ± 0.077	1.66 ± 0.12
CUAUUA	-0.459 ± 0.052	1.38 ± 0.033	-0.243 ± 0.052	1.6 ± 0.064
AAACUC	-0.854 ± 0.053	1.706 ± 0.0065	-0.744 ± 0.039	1.83 ± 0.071
GUAAAU	-0.979 ± 0.044	1.6 ± 0.051	-0.774 ± 0.011	1.76 ± 0.084
AGAUUA	-0.549 ± 0.084	1.49 ± 0.078	-0.245 ± 0.019	1.69 ± 0.15
AUUGGU	-0.24 ± 0.092	1.58 ± 0.052	0.0192 ± 0.053	1.78 ± 0.14
AAUACG	-0.6 ± 0.066	1.6 ± 0.058	-0.2 ± 0.094	1.78 ± 0.06
AGCAGA	-0.373 ± 0.045	1.564 ± 0.0029	-0.1 ± 0.017	1.69 ± 0.19
CGGUAU	-0.696 ± 0.0075	1.35 ± 0.14	-0.413 ± 0.0071	1.51 ± 0.14
CGGUAC	-0.413 ± 0.026	1.53 ± 0.13	-0.0971 ± 0.017	1.72 ± 0.086
GAGUAG	-0.7206 ± 0.0025	1.84 ± 0.075	-0.563 ± 0.061	1.89 ± 0.12
AGGCUU	0.2 ± 0.22	1.655 ± 0.015	0.371 ± 0.029	1.85 ± 0.1
AUGGGU	-0.563 ± 0.083	1.54 ± 0.072	-0.3945 ± 0.00061	1.74 ± 0.07
CGGGAG	-0.586 ± 0.063	1.68 ± 0.017	-0.113 ± 0.0022	1.79 ± 0.064
CUUAUA	-0.487 ± 0.096	1.44 ± 0.09	-0.184 ± 0.028	1.65 ± 0.088
